The results in this text go back to PMC1479692, “The PLAC1-homology region of the ZP domain is sufficient for protein polymerisation” (BMC Biochemistry, 2006).

This data set deals with the molecule itself. The experiment in a line: SEC; purified MBP-ZP-N-6his on Sephacryl S-300 HR (FPLC) and Bio-Sil SEC-250-5 (HPLC) columns, ~300 kDa Mr cut-off; buffer F (10 mM Na-HEPES pH 8.0, 100 mM NaCl, 1 mM maltose, 1 mM NaN3); also with 10 mM DTT, and after pre-incubation with 10 mM EDTA. For orientation: In gel filtration, larger molecules generally elute earlier.

B1: MBP-ZP-N-6his fusion protein (PLAC1-homology region, ZP-N, of the ZP domain of mouse ZP3) (domain or fragment, UniProt P10761 42-143, looked up)
chain: VKVECLEAELVVTVSRDLFGTGKLVQPGDLTLGSEGCQPRVSVDTDVVRFNAQLHECSSRVQMTKDALVYSTFLLHDPRPVSGLSILRTNRVEVPIECRYPR
modifications: intramolecular disulfides Cys 46-Cys 139 and Cys 78-Cys 98 (ZP3 numbering)
notes: mouse ZP3 (zona pellucida sperm receptor), aa 42-143, the 102-amino acid ZP-N fragment; The assay buffer contained 1 mM maltose; also called recombinant ZP-N; ZP-N fragment; source: E. coli Origami B (DE3) (trxB gor), co-expressing ΔSSdsbC and TrxA(G33P, P34Y); purified (Ni2+ HiTrap Chelating HP, amylose resin, Mono Q); not shown: His6 (LEH6), C-terminal, kept
As to B1, the binding result was “binds”.
